Assay results: article PMC3172333
Where two headings read alike, the source gives them in different places.

Tests used:
[1] = molecular target: recombinant Aα221-610 fragment corresponding to the human fibrinogen αC region (non-cross-linked) (human); assay: SEC
[2] = molecular target: recombinant Aα221-610 fragment corresponding to the human fibrinogen αC region (non-cross-linked) (human); assay: SEC; remark: listed apart in the source
[3] = molecular target: recombinant Aα221-610 fragment corresponding to the human fibrinogen αC region (non-cross-linked) (human); assay: SEC; remark: listed apart in the source
[4] = molecular target: recombinant Aα221-610 fragment corresponding to the human fibrinogen αC region (non-cross-linked) (human); assay: SEC; remark: listed apart in the source
[5] = molecular target: recombinant Aα221-610 fragment corresponding to the human fibrinogen αC region (non-cross-linked) (human); assay: SEC; remark: listed apart in the source
[6] = molecular target: cross-linked Aα221-610 oligomers (factor XIIIa cross-linked) (human); assay: SPR

Row | Substance | percent oligomers [1] [%] | percent monomer [2] [%] | percent oligomers [2] [%] | percent oligomers (after overnight incubation) [2] [%] | percent oligomers (immediately after dilution) [2] [%] | percent oligomers [3] [%] | percent oligomers [4] [%] | percent monomer [5] [%] | Kd [6] [nM]
1 | recombinant Aα221-610 fragment corresponding to the human fibrinogen αC region (non-cross-linked) (domain or fragment) | 15 | 60 | 5 | 11 | 18 | 60 | 22 | 10 | 
2 | recombinant single-chain tissue type plasminogen activator (enzyme) |  |  |  |  |  |  |  |  | 440
3 | human Glu-plasminogen (natural protein) |  |  |  |  |  |  |  |  | 458
